What was measured:
[1] = molecular target: 猪溶素 (Suilysin, SLY), recombinant rSLY (猪链球菌 (Streptococcus suis))
[2] = molecular target: 肺炎链球菌溶血素 (Pneumolysin O, PLY), recombinant rPLY (肺炎链球菌 (Streptococcus pneumoniae))
[3] = molecular target: 李斯特菌溶血素 (Listeriolysin O, LLO), recombinant rLLO (单增李斯特菌 (Listeria monocytogenes))
rSLY D4 = molecular target: T1, rSLY D4 (猪链球菌 (Streptococcus suis)); experiment: Western blot
T1 construct: also called SLY D4结构域
T1 chain: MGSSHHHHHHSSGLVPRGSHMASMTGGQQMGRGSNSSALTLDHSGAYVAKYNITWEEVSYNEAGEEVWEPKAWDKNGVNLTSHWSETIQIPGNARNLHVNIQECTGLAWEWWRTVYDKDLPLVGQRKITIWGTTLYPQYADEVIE

rLLO D4 = molecular target: T2, rLLO D4 (单增李斯特菌 (Listeria monocytogenes)); experiment: Western blot
T2 construct: also called LLO D4结构域

rLLO D1-3 = molecular target: T3, rLLO D1-3 (单增李斯特菌 (Listeria monocytogenes)); experiment: Western blot
T3 construct: also called LLO D1-3结构域
T3 chain: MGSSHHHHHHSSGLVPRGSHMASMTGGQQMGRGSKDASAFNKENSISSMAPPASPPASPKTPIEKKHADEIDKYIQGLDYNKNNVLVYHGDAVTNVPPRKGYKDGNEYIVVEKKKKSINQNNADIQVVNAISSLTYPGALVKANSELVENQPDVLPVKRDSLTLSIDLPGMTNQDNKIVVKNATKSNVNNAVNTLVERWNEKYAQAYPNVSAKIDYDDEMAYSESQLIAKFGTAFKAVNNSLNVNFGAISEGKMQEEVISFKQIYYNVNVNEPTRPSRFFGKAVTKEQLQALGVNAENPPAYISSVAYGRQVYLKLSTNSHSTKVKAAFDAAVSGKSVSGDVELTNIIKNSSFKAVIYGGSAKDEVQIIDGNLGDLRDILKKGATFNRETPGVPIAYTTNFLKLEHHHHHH

B1: 抗胆固醇依赖性细胞溶素的抗体 (antibody, V domains shown)
VH: QVQLQQSGPGLVKPSQTLSLTCAISGDSVSSNSVAWNWIRQSPSRGLEWLGRTYYRSKWYNDYAVSVKSRITINPDTSKNQFSLQLNSVTPEDTAVYYCVRVDNSGWGNWGQGTLVTVSS
VL: EIVMTQSPLSSPVTLGQPASISCRSSQSLVHRDGNTYLSWLRQRPGQPPRLLIYKISNRFSGVPDRFSGSGAGTDFTLKISRVEAEDVGIYYCMQATQFPTFGGGTKVEIKR
notes: also called 胆固醇依赖性细胞溶素抗体; 抗胆固醇依赖性细胞溶素抗体
- EC50 [1]: 0.18 nM
- EC50 [2]: 49.9 µM
- EC50 [3]: 44.9 µM
- binding result (rSLY D4): no binding (tested: 抗体1:1000稀释)
- binding result (rLLO D4): no binding (tested: 抗体1:1000稀释)
- binding result (rLLO D1-3): binds

From patent CN114685663A (UNIV SOUTHWEST, dated 2022)
